*1 amine or outer side, *2 acyl side, *3 side chain or, on linkers, in order; H or OH if unused. Where no end group is shown, it is not given here. Side-chain parts run from the residue outwards. The star is where a group is joined. C20 diacid = O=C(O)CCCCCCCCCCCCCCCCCCC(=O)*; C18 diacid = O=C(O)CCCCCCCCCCCCCCCCC(=O)*; C16 diacid = O=C(O)CCCCCCCCCCCCCCC(=O)*; γGlu = O=C(O)[C@H](CCC(=O)[*:2])N[*:1]; C14 diacid = O=C(O)CCCCCCCCCCCCC(=O)*; AEEA = NCCOCCOCC(=O)O
Biological target: glucagon receptor (human, UniProt P47871 26-477)
Sequence (P47871 26-477): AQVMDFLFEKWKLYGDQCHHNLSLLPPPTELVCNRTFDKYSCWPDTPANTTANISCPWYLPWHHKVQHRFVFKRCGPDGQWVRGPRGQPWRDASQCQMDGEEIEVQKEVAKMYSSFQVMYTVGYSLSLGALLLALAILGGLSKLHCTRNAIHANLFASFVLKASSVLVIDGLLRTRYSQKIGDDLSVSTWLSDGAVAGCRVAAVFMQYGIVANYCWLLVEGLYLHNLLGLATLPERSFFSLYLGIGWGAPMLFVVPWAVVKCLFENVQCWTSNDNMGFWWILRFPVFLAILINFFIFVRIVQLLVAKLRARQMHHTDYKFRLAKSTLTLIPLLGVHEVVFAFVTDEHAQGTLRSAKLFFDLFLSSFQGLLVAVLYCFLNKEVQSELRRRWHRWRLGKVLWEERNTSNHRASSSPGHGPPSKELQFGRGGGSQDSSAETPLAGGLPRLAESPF
Experiment: cell-based or functional assay

Binder | Assay (I) Glucagon [EC50] [nM]
HSQGTFTSDYSKYLESRRAQDFVK([γGlu-γGlu-AEEA-γGlu-C18 diacid])WLLST | 0.28
HSQGTFTSDYSRYLDTRRAQDFVK([γGlu-γGlu-AEEA-AEEA-γGlu-C18 diacid])WLLNT | 0.031
HSQGTFTSDYSKYLDIRRAQDFVK([γGlu-γGlu-AEEA-AEEA-γGlu-C18 diacid])WLLST | 0.084
HSQGTFTSDYSKYLDTRRAQDFVK([γGlu-γGlu-AEEA-AEEA-γGlu-C18 diacid])WLLST | 0.075
HSQGTFTSDYSRYLESRRAQDFVK([γGlu-γGlu-AEEA-AEEA-γGlu-C18 diacid])WLLST (not fully specified; printed as Nε24-[(4S)-4-carboxy-4-[[(4S)-4-carboxy-4-[[2-[2-[2-[[2-[2-[2-[[(4S)-4-carboxy-4-(17-carboxyheptadecanoylamino)butanoyl]amino]ethoxy]ethoxy]acetyl]amino]ethoxy]ethoxy]acetyl]amino]butanoyl]amino]butanoyl]-[Arg12,Glu15,Lys24,Leu27,Ser25]-Glucagon) | 0.748
HSQGTFTSDYSRYLDLRRAQDFVK([γGlu-γGlu-AEEA-AEEA-γGlu-C18 diacid])WLLST | 0.255
HSQGTFTSDYSRYLDARRAQDFVK([γGlu-γGlu-AEEA-AEEA-γGlu-C18 diacid])WLLST | 0.158
HSQGTFTSDYSRYLDFRRAQDFVK([γGlu-γGlu-AEEA-AEEA-γGlu-C18 diacid])WLLST | 1.64
HSQGTFTSDYSRYLDLRRAQDFVK([γGlu-γGlu-AEEA-AEEA-γGlu-C18 diacid])WLLIT | 1.67
HSQGTFTSDYSRYLDLRRAQDFVK([γGlu-γGlu-AEEA-AEEA-γGlu-C18 diacid])WLLTT | 0.754
HSHGTFTSDYSKYLDSRRAQDFVK([γGlu-γGlu-AEEA-AEEA-γGlu-C18 diacid])WLLST | 0.129
HSQGTFTSDYSRYLDRRRAQDFVK([γGlu-γGlu-AEEA-AEEA-γGlu-C18 diacid])WLLST | 0.355
HSQGTFTSDYSRYLDVRRAQDFVK([γGlu-γGlu-AEEA-AEEA-γGlu-C18 diacid])WLLST | 1.32
HSQGTFTSDYSRYLDTRRAQDFVK([γGlu-γGlu-AEEA-AEEA-γGlu-C18 diacid])WLLST | 0.297
HSQGTFTSDYSRYLDIRRAQDFVK([γGlu-γGlu-AEEA-AEEA-γGlu-C18 diacid])WLLST | 1.04
HSQGTFTSDYSRYLDLRRAQDFVK([γGlu-γGlu-AEEA-AEEA-γGlu-C14 diacid])WLLST | 0.006
HSQGTFTSDYSRYLDLRRAQDFVK([γGlu-γGlu-AEEA-AEEA-γGlu-C16 diacid])WLLST | 0.067
HSQGTFTSDYSRYLDLRRAQDFVK([γGlu-γGlu-AEEA-AEEA-γGlu-C20 diacid])WLLST | 1.07
HSQGTFTSDYSRYLDLRRAQDFVK([γGlu-AEEA-AEEA-γGlu-γGlu-C18 diacid])WLLST | 0.91
HSQGTFTSDYSRYLDLRRAQDFVK([AEEA-AEEA-γGlu-γGlu-γGlu-C18 diacid])WLLST | 0.1

Binder | Assay (I) Glucagon [EC50] [nM]
HSQGTFTSDYSRYLDLRRAQDFVK([γGlu-γGlu-γGlu-C18 diacid])WLLST | 1.32
HSHGTFTSDYSKYLDSRRAKDFVK([γGlu-γGlu-AEEA-AEEA-γGlu-C18 diacid])WLLST | 0.249
HSQGTFTSDYSKYLDVRRAQDFVK([γGlu-γGlu-AEEA-AEEA-γGlu-C18 diacid])WLLST | 0.307
HSQGTFTSDYSKYLDTRRAQEFVK([γGlu-γGlu-AEEA-AEEA-γGlu-C18 diacid])WLLST | 0.072
HSQGTFTSDYSKYLESRRAQDFVK([γGlu-AEEA-AEEA-γGlu-C18 diacid])WLLNI | 1.12
HSQGTFTSDYSKYLESRRAQDFVK([γGlu-AEEA-AEEA-γGlu-C18 diacid])WLLNV | 0.92
HSQGTFTSDYSKYLESRRAQDFVK([γGlu-AEEA-AEEA-γGlu-C18 diacid])WLLNL | 1.9
HSQGTFTSDYSKYLDTRRAQDFVK([γGlu-AEEA-AEEA-γGlu-C18 diacid])WLLNI | 0.413
HSQGTFTSDYSKYLDTRRAQEFVK([γGlu-AEEA-AEEA-γGlu-C18 diacid])WLLNV | 0.12
HSQGTFTSDYSKYLDTRRAQEFVK([γGlu-AEEA-AEEA-γGlu-C18 diacid])WLLNL | 0.183
HSQGTFTSDVSKYLDTRRAQEFVK([γGlu-γGlu-AEEA-AEEA-γGlu-C18 diacid])WLLST | 0.139
HSQGTFTSDYSKYLDTRRAQDFVK([γGlu-γGlu-AEEA-AEEA-γGlu-C18 diacid])WLLST-NH2 (N-terminus assumed; SMILES CC(C)C[C@H](NC(=O)[C@H](Cc1c[nH]c2ccccc12)NC(=O)[C@H](CCCCNC(=O)CC[C@H](NC(=O)CC[C@H](NC(=O)COCCOCCNC(=O)COCCOCCNC(=O)CC[C@H](NC(=O)CCCCCCCCCCCCCCCCC(=O)O)C(=O)O)C(=O)O)C(=O)O)NC(=O)[C@@H](NC(=O)[C@H](Cc1ccccc1)NC(=O)[C@H](CC(=O)O)NC(=O)[C@H](CCC(N)=O)NC(=O)[C@H](C)NC(=O)[C@H](CCCNC(=N)N)NC(=O)[C@H](CCCNC(=N)N)NC(=O)[C@@H](NC(=O)[C@H](CC(=O)O)NC(=O)[C@H](CC(C)C)NC(=O)[C@H](Cc1ccc(O)cc1)NC(=O)[C@H](CCCCN)NC(=O)[C@H](CO)NC(=O)[C@H](Cc1ccc(O)cc1)NC(=O)[C@H](CC(=O)O)NC(=O)[C@H](CO)NC(=O)[C@@H](NC(=O)[C@H](Cc1ccccc1)NC(=O)[C@@H](NC(=O)CNC(=O)[C@H](CCC(N)=O)NC(=O)[C@H](CO)NC(=O)[C@@H](N)Cc1c[nH]cn1)[C@@H](C)O)[C@@H](C)O)[C@@H](C)O)C(C)C)C(=O)N[C@@H](CC(C)C)C(=O)N[C@@H](CO)C(=O)N[C@H](C(N)=O)[C@@H](C)O) | 0.039
HSHGTFTSDYSKYLDERRAKDFVK([γGlu-γGlu-AEEA-AEEA-γGlu-C18 diacid])WLLST | 0.237
HSQGTFTSDYSKYLDTRRAQDFVK([AEEA-γGlu-γGlu-AEEA-γGlu-C18 diacid])WLLST | 0.078
HSQGTFTSDYSKYLDERRAQDFVK([γGlu-γGlu-AEEA-AEEA-γGlu-C18 diacid])WLLST | 0.13
HSQGTFTSDYSRYLDERRAQDFVK([γGlu-γGlu-AEEA-AEEA-γGlu-C18 diacid])WLLST | 0.153
HSQGTFTSDYSKYLDARRAQDFVK([γGlu-γGlu-AEEA-AEEA-γGlu-C18 diacid])WLLST | 0.049
HSQGTFTSDYSRYLDTRRAQDFVK([γGlu-γGlu-AEEA-AEEA-γGlu-C18 diacid])WLEST | 0.176
HSQGTFTSDYSRYLDLRRAQDFVK([γGlu-γGlu-γGlu-AEEA-AEEA-γGlu-C18 diacid])WLLST | 0.243

— patent US20130079278A1 (Novo Nordisk, published 2013)
